B1: MF6783 x MF6783 bivalent monospecific CD137 IgG (antibody, V domains shown)
VH: QVQLVQSGSELKKPGASVKVSCKASGYTFTNFAMNWVRRAPGQGLEWMGWINTNTGNPTYAQGFTGRFVFSLDTSVNTAYLQISSLKAEDTAVYYCARDWGVIGGHYMDVWGKGTTVTVSS
VL: not shown
notes: bivalent IgG; also called PG6783; PB14143; copies: 2 + 2
B2: MF6861 x MF6861 bivalent monospecific CD137 IgG (antibody, V domains shown)
VH: QVQLVQSGAEVKKPGASVKVSCKASGYTFTSYGISWVRQAPGQGLEWMGWISAYNGNTNYAQKLQGRVTMTTDTSTSTAYMELRSLRSDDTAVYYCARDSDGYGPKAFDYWGQGTLVTVSS
VL: not shown
notes: bivalent IgG; copies: 2 + 2
B3: MF6744 x MF6744 bivalent monospecific CD137 IgG (antibody, V domains shown)
VH: EVQLVQSGAEVKKPGESLKISCKGSGYSFTSYWIGWVRQMPGKGLEWMGIIFPDDSDTRYSPSFQGQVTISADKSISTAYLQWSSLKPSDTAMYYCVRLGGYSGYAEDFVDFWGQGTLVTVSS
VL: not shown
notes: bivalent IgG; also called PG6744; PB14135; copies: 2 + 2
B4: MF6825 x MF6825 bivalent monospecific CD137 IgG (antibody, V domains shown)
VH: QITLKESGPTLVKPTQTLTLSCTFSGFSLSTSGMSVGWIRQPPGKALEWLALIYWNDDKYFSPSLKSRLTITKDTSKNQVVLTLTNMDPVDTATYYCAHTLWGSDDVFDVWGQGTMVTVSS
VL: not shown
notes: bivalent IgG; also called PB14162; copies: 2 + 2
B5: MF6788 x MF6788 bivalent monospecific CD137 IgG (antibody, V domains shown)
VH: EVQLVQSGSELKKPGASVKVSCKASGYTFTNFAMNWVRQAPGQGLEWMGWINTNTGNPTYAQDFTGRFVFSLDTSGNTAYLQISSLKAEDTAVYYCARDWGLVAIGYFDYWGQGTLVTVSS
VL: not shown
notes: bivalent IgG; also called PB14193; copies: 2 + 2
B6: MF6798 x MF6798 bivalent monospecific CD137 IgG (antibody, V domains shown)
VH: QVQLVQSGSELKKPGASVKVSCRASGYTFTNFAMTWVRQAPGQGPEYMGWINTNTGNPTYAQGFTGRFVFSLDTSVNTAYLQISSLKAEDTAVYYCARDWASVMVRGDLDYWGQGTLVTVSS
VL: not shown
notes: bivalent IgG; copies: 2 + 2
B7: MF6795 x MF6795 bivalent monospecific CD137 IgG (antibody, V domains shown)
VH: EVQLVQSGAEVKKPGESLKISCKGSGYSFTSYWIGWVRQMPGKGLEWMGIIYPDDSDTRYSPSFQGQVTISADKSSSTAYLQWSSLKASDTAMYYCASFYTGIVGATGAFDVWGQGTTVTVSS
VL: not shown
notes: bivalent IgG; copies: 2 + 2

Experiments:
[1] = target: T1, recombinant huCD137-Fc (R&D; cat. no. 838-4B) (human, UniProt Q07011 24-186); assay: competition ELISA: CD137L-muCD8 biotin on coated CD137-Fc, IgG 20 ug/ml
T1 construct: Bought; not shown: Fc of bought fusion protein, not described

[2] = target: T1, recombinant huCD137-Fc (R&D; cat. no. …); assay: CD137L blocking assay; competitor CD137L; format not told in the excerpt

Row | Binder | % CD137L block [1] [%] | % CD137L block [2] [%]
1 | B1 | 44 | 44
2 | B2 | 50 | 50
3 | B3 | 67 | 67
4 | B4 | 89 | 89
5 | B5 | 55 | 55
6 | B6 | 44 | 44
7 | B7 | 32 | 32
